{"source": "a protein production outcome set (Wang et al. 2014)", "data": [{"test": "label from the status in PepcDB records", "values": [{"sequence": "MSGVASGKTAIKSTAKVLSFVVQKHWATRLHYDFRLELEGTMKSWAVPKGPSFDPNDKRMAVHVEDHPISYNSFEGEIPSGQYGAGKVIIWDKGTWIPLEDPHKGYRDGKLKFELRGLKLKGHWALVRMRKEENKKQEPWLLIKEKDEYVRSSREYSVVDEMPDSVAELEHHHHHH", "protein production": "failed"}, {"sequence": "MSHDRSVNVSHDAVIAKPERGTMLQSFSPRSHGSKGYSLPQDSEENRGSVGQSAGQSSTSVVDQVRSPADDAGVTSSSTICPAPVCRQFWKAGSYNDELSSKSQQPNGKNYLHVHPMFLHSNATSHKWAFGAVAELLDNAVDEIQNGATFVIVDKTTNPRDGATALLIQDDGGGMDPQAMRHCMGFGFSDKKSDSAIGRYGNGFKTSTMRLGADVIVFSRHSKNQTLTQSIGLLSYTYLTRTGHDRIVVPILDYEFNASAGEFKTLQDREHFISSLSILLEWSPFSTEAELLQQFDDVGPHGTKVIIYNMWLNSDAKLELDFDSVAEDILIEGSIKKTGSKIVNDHIASRFSYSLRVYLSILYLRIPETFKIILRGKVVEHHNVADDLMHPQYILYKPQAAGSEEALVVTTIGFLKEAPKVNLHGFCVYHKNRLIMPFWQVINYSSSRGRGVVGVLEANFVEPTHNKQDFEKTVLLQKLENRLKEMTVEYWSCHCVLIGYQVNKKPRLQIPQKVQPAGRQALSPPPGFQAVFPQGNTTSLPRVSTQPVLLEKRKEHPDSVASAALKRKVGNDDFTVPGHIRVEQFIHGSASQSQDIETVKLMEENKKLRAKCLDRKVRSQNLEVKAMNLRSELENYKSEYERLMVELQALDLVKDEHRRNVNT", "protein production": "failed"}, {"sequence": "MSHEQPVTVSVARTILPGYTRQANAWAHAGQELAREWPGYLGSGWVRNGVDSAEWHMLYRFADADSLQEWEDSEERRWWIDSARDMMETTRVERHTGIEGWFSRPGDVSVVVPETVVPPRWKQAISIFLPFFPLSLLANFLLHPLTQDWQLVLSVLLNIVILTPLMTYIFLPITTRLLQPWLQAKPRKRPR", "protein production": "failed"}, {"sequence": "MSHKISEYFANDPPSFFDELASKPKGNNLSTEGSSSSASSTSSAPNMMSNTFVGFFQPPEYVETPEAGEDSIKVGDDVRNLWELPRENEPGKLIMPGIHLQTDLADPISVAVTQHLGEAELSYRKILRVDDVTQDERGLRTLIHAGCYRTAVNLTGRLLTIYGQGYGRSGQPAKHSPHSLQLWFTRLALLAKLGEFELLNAEAEPFGQLTSPDVFYDFYPEMYNGKSGSIACFSFRLLLAELPIYLGKPHVALDRLSELHVTTREIKEHYLSLHNKAAEEFWQRRCERVLHSIINCGLMMKKFSMIDDIMEGTLLKRSNLSKEDRRSLYSAWGRIYLQIGDIFGAEQKIAVSRRLREINSAPDLRDLVDKGLIAVAKNDFPEAYVIFQKALHLDTGNTMILNNMGVCLLYAGKLKDAINLYERAINLNPQKSLNESLLVNLSTLYELESNNSKAKKYNLLRLINRYKPDLNISIEICLKLQTIN", "protein production": "failed"}, {"sequence": "MSHPFEGLPTTPTAEELVDKAFSRASRAGGAKDGNEAQQSMLMTASNIASDNMENVVTAWPTIDDLDPFYVELADAVVGEAYPADDDPGIDALKQHLSEISWAADKVVEIRQEYESRVARGDIDTARKLRKQAFARIADVVEEVEDDLAAISTAHNALKDIPDIRPNEPAIVVAGYPNVGKSSFVNRVTRADNEIASYPFTTTQIRVGHFEDQRIRYQLVDTPGLLDRPPEDRNEIESQAVSALEHLADAVLVFIDPSGECGYPLADQLELRNAIEARFDVPVLTIANKSDLSTDVEADHYMSVTEDDNVDGVLQAAIDAVDYELELPFDE", "protein production": "failed"}, {"sequence": "MSIDFYNQNASSFYASTVEVDSSSLLEQFTPYLPKGGSVLDAGCGSGRDSKRLIELGFHVDAFDASAALATLAQQLLGKPVRVATFMQFTSTLQYDGIWACASLLHVSKASLPDAFAHLASMLKSGGAFYCSFKYGQGEVERDGRSFTHCDEALLAELLTGSPLVIDKVWLTTDLRVGRENEQWLNAVLLKRLEHHHHHH", "protein production": "not failed"}, {"sequence": "MSIESFNLLLLVMGLVALVVFIALYFVRAGYGMFRSRSWGISVNNKIAWILMEAPVFLVMGWLWWHSDRRFLPVELTFFLFFQLHYFQRAFVFPFLMKGKSKMPVLILLMGVIFNILNGLMQGEWIFYLAPSDYYTPGWLLTPCFWIGTLLFFAGMGINWHSDSVIRHLRAPGDTRHYLPQRGMYRYVTSANYLGEIVEWVGWAILTWSLSGCIFAWWTVANLVPRADAIWHRYREEFGTQVGLKKRIFPFLY", "protein production": "failed"}, {"sequence": "MSIESSATPTTPNAEALQLNSTEVRILGCLIEKQATNPETYPLTLNALVIACNQKTSRDPVMNLTQGQVGQSLRALEGRGLTRLVMGSRADRWEHKVDKGLELVPAQVILTGLLLLRGPQTVSELLTRSNRMHDFEDSEQVVHQLERLIARGLATLVPRQSGQREDRYMHLIGDPEDLQD", "protein production": "not failed"}, {"sequence": "MSIIDLTKLEQKVATMWDSILTNSPFIHEVLDGKATKALYAIYMTETYHYTKHNAKNQALVGIMGKDLPGKYLSFCFHHAHEEAGHELMALSDIASIGFDREDVLSSKPLPATETLIAYLYWISATGNPVQRLGYSYWAENVYGYIDPVLKAIQSTLDLTPQSMKFFIAHSKIDAKHAEEVNEMLHEVCKTQEDVDSVVAVMENSLVLTARILDDVWKEYQLFQSGASDRYAFLRDNA", "protein production": "not failed"}, {"sequence": "MSIITRLFNNSDFEKLNQLCKLYDDLGYPTNENDLKKRLKKITNHDDYFLLLLIKENKIIGLSGMCKMMFYEKNAEYMRILAFVIHSEFRKKGYGKRLLADSEEFSKRLNCKAITLNSGNRNERLSAHKLYSDNGYV", "protein production": "failed"}, {"sequence": "MSIKAGFDDRALARVEAAIRADVESGIYDGAVIKVARHGQIALDATIGFSNRRAGAAMREDAVFKVLSLTKAFTTTLVLEAIDLGLLSLTTRVVDVIPEFWGRDLFRSGRKERVNVGHLLTHRAGLSPTPQPLPYDQLHNFSETIQAICALDVVGEPGKAFNYSPTVNHALLGEMVRRVHGAASLAELMDQRLFSRLGMSSTSLGPTSQIRDRLVPLTSDFPEGGWLTNADIKAVADAIEAPNSQMPWVGAMTSAQDVFVFAEMLREQGTVRDERILSPAVVRKATTLQTGDAINDLYKLLADARHWDLPAGNMGLGFALGGDGLTVSQFGTLTSPGTFGNFGAGSTLFWVDPESQITFVCLTAKVMEESENILRFQRLSDLVASAAL", "protein production": "failed"}, {"sequence": "MSIKIGLLGFGTVASGIPFLLKENGEKVFAASRDQLEIAKVLVKDDEEKDRLIAAGNDYNFVTNVDEILNDEEIQIVVELMGRIEPARTFITKALEAGKNVVSANKDLIATHGKELIALAQDKGVAFYYEAAVAGGIPILRTLANSLTSDKVTRILGVLNGTSNFMMTKMVDEGWSYEDALKTAQELGYAESDPTNDVEGYDAAYKAVILSQFGFGATIDFDDVSHKGITNISTDDVAVAQELGYVIKLVGDVREVESGISAEVSPTFLPKNHPLASVNDVMNAVFVESIGIGESMYYGPGAGQKPTATSVLADIIRIARRLSDGNVGKPFNEFRRDLPLANPADVKSNYYFALDTPDEKGKILHLSEIFNSEDISFEQVLQQKANGTTARIVVITHAMSKTQLKAVTEKLEAAEDFTVVNTLKVLSNLEHHHHHH", "protein production": "not failed"}, {"sequence": "MSIKPKIMISSLDAERLEILLETLSQNAFPGRDDLEAELARAEVVDPEEIPPTVVTMNSTVRFRVESSAEEFCLTLVYPKDVDTSGEKISILAPVGSALLGLAQGDEIEWPKPGGGVLRVRIVEVTYQPERSGEYYR", "protein production": "not failed"}, {"sequence": "MSIKVEDYFAPETFQRMKAFADKQETPFVVIDKQTIADAYDQLTDCFPFARIYYAVKANPATEITELLRDKGSNFDIASIYELDKVMKTGVGPERISYGNTIKKSKDIRYFYEKGVRLFATDSEADLRNIAKAAPGAKVYVRILTEGSTTADWPLSRKFGCQTDMAMDLLILARQLGLEPYGISFHVGSQQRDISVWDAAIAKVKVIFERLKEEDGIVLKMINMGGGFPANYITKTNDLETYAEEIIRFLKEDFGDDLPEIILEPGRSLIANAGILVSEVVLVARKSRTAVERWVYADVGKFSGLIETMDESIKFPIWTEKQGEMEEVVIAGPTCDSADIMYEHYKYGLPLNLASGDRLYWLSTGAYTTSYSAVEFNGFPPLKAFYL", "protein production": "failed"}]}]}
